Measured values taken from patent US20160185837A1 (Medimmune Limited, priority 2013, published 2016).

Assays:
Assay type in all cases: cell-based
[1] = target: T1, rat GLP-1 receptor (rGLP-1r) (Rattus norvegicus, UniProt P32301); assay: BSA-cAMP assay, cells expressing rat GLP-1 receptor; conditions: Batch 1; BSA-cAMP assay; read-out: rGLP1r cAMP activity EC50
T1 construct: expressed in transfected cells; host or cells: HEK293s or CHO cells
T1 sequence (P32301 22-463): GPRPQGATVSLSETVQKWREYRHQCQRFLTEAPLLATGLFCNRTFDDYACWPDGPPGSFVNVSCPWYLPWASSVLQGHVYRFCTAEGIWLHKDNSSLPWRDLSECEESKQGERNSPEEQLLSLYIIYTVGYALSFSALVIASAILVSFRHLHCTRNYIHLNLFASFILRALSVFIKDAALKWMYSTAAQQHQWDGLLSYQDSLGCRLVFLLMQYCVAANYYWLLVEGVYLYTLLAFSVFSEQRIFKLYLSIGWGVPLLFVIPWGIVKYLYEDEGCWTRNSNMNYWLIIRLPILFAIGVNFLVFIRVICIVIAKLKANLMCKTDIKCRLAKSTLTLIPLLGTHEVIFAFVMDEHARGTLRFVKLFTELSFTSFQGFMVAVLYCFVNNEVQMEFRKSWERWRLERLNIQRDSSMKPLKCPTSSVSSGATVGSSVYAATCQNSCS
Protocol: (§1) One basic cAMP assays was performed, differing in the medium used for the assay, the “BSA-cAMP assay”:
(§2) BSA-based assay medium: 0.1% bovine serum albumin (BSA) in
(§3) In certain aspects, the assay can also be carried out in medium supplemented with serum albumin that corresponds to the receptor being tested, e.g., human serum albumin for testing cAMP activity at hGIPr or hGLP-1r, rat serum albumin for testing cAMP activity at rGIPr or rGLP-1r, and so on. […] All sample dilutions were made in duplicate.
(§4) A frozen cryo-vial of cells expressing the receptor of interest was thawed rapidly in a water-bath, transferred to pre-warmed assay media and spun at 240×g for 5 minutes. Cells were re-suspended in assay buffer at an optimized concentration (e.g., hGLP-1r and hGIPr cells at 0.5×10^5 cells/ml).
(§5) To this, 5 μL cell suspension was added and the plates incubated at room temperature for 30 minutes.
(§6) cAMP levels were measured using a commercially available cAMP dynamic 2 HTRF kit (Cisbio, Cat #62AM4PEJ), following the two step protocol as per manufacturer's recommendations. In brief; anti-cAMP cryptate (donor fluorophore) and cAMP-d2 (acceptor fluorophore) were made up separately by diluting each 1/20 in conjugate & lysis buffer provided in the kit. 5 μL anti-cAMP cryptate was added to all wells of the assay plate, and 5 μL cAMP-d2 added to all wells except non-specific binding (NSB) wells, to which conjugate and lysis buffer was added. […] Data was transformed to % Delta F as described in manufacturer's guidelines and then transformed to percent activation of maximal native agonist response and analysed by 4-parameter logistic fit to determine EC50 values.
(§7) We used unconstrained 4 parameter logistic fit of data, curve mid-point to determine EC50. This was tested on two occasions, not two batches.
(§8) In order to be able to carry out in vivo studies in rodents, IP088 was tested for potency against the mouse receptors mGIPr and mGLP-1r as well as the rat receptors rGIPr and rGLP-1r, using cells expressing the respective receptors in the cAMP assay described above.

rat GIP receptor (rGIPr) = target: T2, rat GIP receptor (rGIPr) (Rattus norvegicus, UniProt P43219); assay: BSA-cAMP assay, cells expressing rat GIP receptor; conditions: Batch 1; BSA-cAMP assay; read-out: rGIPr cAMP activity EC50
T2 construct: expressed in transfected cells; host or cells: HEK293s or CHO cells
T2 sequence (P43219 19-455): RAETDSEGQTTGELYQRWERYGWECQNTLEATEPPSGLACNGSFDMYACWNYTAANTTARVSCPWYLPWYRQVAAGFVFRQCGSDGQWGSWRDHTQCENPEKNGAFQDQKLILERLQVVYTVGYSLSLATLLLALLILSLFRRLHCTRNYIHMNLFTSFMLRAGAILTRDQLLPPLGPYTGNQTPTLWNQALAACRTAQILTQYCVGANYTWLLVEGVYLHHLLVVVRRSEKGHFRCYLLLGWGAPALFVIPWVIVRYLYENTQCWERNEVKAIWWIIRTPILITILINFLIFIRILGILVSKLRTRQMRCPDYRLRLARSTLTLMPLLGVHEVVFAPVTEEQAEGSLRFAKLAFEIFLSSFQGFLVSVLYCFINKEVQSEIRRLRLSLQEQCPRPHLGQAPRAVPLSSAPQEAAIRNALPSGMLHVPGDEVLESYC
Protocol: as §1, §2, §3, §4, §5, §6, §7, §8

[2] = target: T3, human GIP receptor (hGIPr) (Homo sapiens, UniProt P48546); assay: BSA-cAMP assay, cells expressing human GIP receptor; conditions: Batch 1; BSA-cAMP assay; read-out: hGIPr cAMP activity EC50
T3 construct: expressed in transfected cells
T3 sequence (P48546 22-466): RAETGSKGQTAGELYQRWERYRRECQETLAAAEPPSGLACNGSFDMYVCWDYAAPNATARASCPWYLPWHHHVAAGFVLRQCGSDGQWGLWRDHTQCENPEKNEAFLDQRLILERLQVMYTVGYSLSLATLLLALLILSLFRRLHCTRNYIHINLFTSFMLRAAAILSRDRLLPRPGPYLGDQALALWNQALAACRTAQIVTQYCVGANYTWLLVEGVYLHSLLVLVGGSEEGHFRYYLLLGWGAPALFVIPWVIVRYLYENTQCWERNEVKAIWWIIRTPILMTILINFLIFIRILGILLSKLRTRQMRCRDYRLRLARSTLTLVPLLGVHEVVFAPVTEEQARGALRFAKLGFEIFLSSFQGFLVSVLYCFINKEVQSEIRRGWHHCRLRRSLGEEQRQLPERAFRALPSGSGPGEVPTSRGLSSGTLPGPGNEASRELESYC
Protocol: For human GIPr, two different lines were used, shown as “hGIPr” and “hGIPr (C3)” in Table 11.
as §1, §2, §3, §4, §5, §6, §7

[3] = target: T4, mouse GLP-1 receptor (mGLP-1r) (Mus musculus, UniProt O35659); assay: BSA-cAMP assay, cells expressing mouse GLP-1 receptor; conditions: Batch 1; BSA-cAMP assay; read-out: mGLP1r cAMP activity EC50
T4 construct: expressed in transfected cells; host or cells: HEK293s or CHO cells
T4 sequence (O35659 22-463): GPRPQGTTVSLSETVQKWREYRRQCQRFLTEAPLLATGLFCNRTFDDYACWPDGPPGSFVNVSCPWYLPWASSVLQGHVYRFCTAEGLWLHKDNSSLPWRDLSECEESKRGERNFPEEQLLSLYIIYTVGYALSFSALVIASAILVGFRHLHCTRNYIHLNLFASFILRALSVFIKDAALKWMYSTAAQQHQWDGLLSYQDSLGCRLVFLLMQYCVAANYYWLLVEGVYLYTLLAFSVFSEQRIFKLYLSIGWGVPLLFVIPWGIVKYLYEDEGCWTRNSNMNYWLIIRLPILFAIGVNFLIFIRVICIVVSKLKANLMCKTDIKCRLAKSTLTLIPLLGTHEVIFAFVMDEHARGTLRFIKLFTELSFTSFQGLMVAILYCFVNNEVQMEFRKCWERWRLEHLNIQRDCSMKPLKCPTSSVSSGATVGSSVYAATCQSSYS
Protocol: as §1, §2, §3, §4, §5, §6, §7, §8

[4] = target: T5, human GLP-1 receptor (hGLP-1r) (Homo sapiens, UniProt P43220); assay: BSA-cAMP assay, cells expressing human GLP-1 receptor; conditions: Batch 1; BSA-cAMP assay; read-out: hGLP1r cAMP activity EC50
T5 construct: expressed in transfected cells
T5 sequence (P43220 24-463): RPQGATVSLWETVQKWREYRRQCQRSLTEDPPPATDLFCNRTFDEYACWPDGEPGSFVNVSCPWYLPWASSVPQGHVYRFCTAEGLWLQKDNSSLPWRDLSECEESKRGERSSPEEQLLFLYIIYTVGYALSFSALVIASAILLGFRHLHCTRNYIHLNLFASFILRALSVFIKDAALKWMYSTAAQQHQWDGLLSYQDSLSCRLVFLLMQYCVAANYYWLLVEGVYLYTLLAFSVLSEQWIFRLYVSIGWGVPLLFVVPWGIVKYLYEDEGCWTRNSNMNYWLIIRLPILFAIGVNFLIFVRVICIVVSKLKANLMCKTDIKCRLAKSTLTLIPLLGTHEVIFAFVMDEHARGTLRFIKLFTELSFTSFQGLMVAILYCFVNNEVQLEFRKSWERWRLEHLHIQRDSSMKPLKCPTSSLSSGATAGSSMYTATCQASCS
Protocol: as §1, §2, §3, §4, §5, §6, §7

[5] = target: T6, human glucagon receptor (GCGr) (Homo sapiens, UniProt P47871); assay: BSA-cAMP assay, cells expressing human glucagon receptor; conditions: Batch 1, read-out: hGCGr cAMP activity EC50
T6 construct: expressed in transfected cells; host or cells: HEK293s or CHO cells
T6 sequence (P47871 26-477): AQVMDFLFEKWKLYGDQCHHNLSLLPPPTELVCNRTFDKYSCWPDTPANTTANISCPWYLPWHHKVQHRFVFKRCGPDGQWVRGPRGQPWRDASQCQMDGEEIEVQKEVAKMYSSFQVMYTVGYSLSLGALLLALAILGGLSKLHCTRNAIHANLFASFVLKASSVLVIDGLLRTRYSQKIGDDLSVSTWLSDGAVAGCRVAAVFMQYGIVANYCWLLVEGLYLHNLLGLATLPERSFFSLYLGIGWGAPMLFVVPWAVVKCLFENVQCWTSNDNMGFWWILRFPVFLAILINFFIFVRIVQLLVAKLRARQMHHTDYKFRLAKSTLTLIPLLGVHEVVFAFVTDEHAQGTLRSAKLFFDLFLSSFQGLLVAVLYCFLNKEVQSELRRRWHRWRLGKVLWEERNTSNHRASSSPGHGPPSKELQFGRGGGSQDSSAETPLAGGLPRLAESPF
Protocol: as §1, §2, §3, §4, §5, §6, §7

[6] = target: T7, mouse GIP receptor (mGIPr) (Mus musculus, UniProt Q0P543); assay: BSA-cAMP assay, cells expressing mouse GIP receptor; conditions: Batch 1; BSA-cAMP assay; read-out: mGIPr cAMP activity EC50
T7 construct: expressed in transfected cells; host or cells: HEK293s or CHO cells
T7 sequence (Q0P543 19-460): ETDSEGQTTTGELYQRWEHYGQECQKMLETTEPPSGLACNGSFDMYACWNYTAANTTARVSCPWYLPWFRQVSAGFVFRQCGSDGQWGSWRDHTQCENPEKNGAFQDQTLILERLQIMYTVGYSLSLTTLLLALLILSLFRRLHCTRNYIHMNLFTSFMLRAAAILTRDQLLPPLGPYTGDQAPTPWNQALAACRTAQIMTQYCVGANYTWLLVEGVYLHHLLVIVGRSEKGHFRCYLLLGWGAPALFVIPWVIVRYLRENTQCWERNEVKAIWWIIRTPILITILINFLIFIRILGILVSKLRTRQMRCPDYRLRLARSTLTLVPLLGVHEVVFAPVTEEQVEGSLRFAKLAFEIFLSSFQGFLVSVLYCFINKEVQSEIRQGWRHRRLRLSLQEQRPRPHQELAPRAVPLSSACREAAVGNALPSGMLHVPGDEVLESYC
Protocol: as §1, §2, §3, §4, §5, §6, §7, §8

| Substance | EC50 [1] | EC50 (rat GIP receptor (rGIPr)) | EC50 [2] | EC50 [3] | EC50 [4] | EC50 [5] | EC50 [6] |
| --- | --- | --- | --- | --- | --- | --- | --- |
| IP385 (YSEGTFTSDYSIYLDRQAIDEFIAWLLKGGGGGGGSGGGGSGGGGSGGGGSACPPC) | 0.16 nM | 1.1 nM | 0.012 nM | 30 nM | 0.47 nM | > 1560 nM | 18 nM |
| IP299: Fc fusion, IgG1-TM(ΔK), SEQ ID NO:351; agonist peptide YSEGTFISDYSKLLEEEAVRDFVEWLKAGG (YSEGTFISDYSKLLEEEAVRDFVEWLKAGGGGGGGSGGGGSGGGGSGGGGSATHTCPPC) | 19 nM | 0.11 nM | 0.021 nM | > 3640 nM | > 3640 nM | 53 nM | 210 nM |
| IP305: Fc fusion, IgG1-TM(ΔK), SEQ ID NO:430; agonist peptide YSEGTFISDYSIALAAAAVRDFVNWLLAGG (YSEGTFISDYSIALAAAAVRDFVNWLLAGGGGGGGSGGGGSGGGGSGGGGSATHTCPPC) | 47 nM | 1.7 nM | 0.26 nM | > 1130 nM | 230 nM | ≥ 1100 nM | 3.2 nM |
| IP381: Fc fusion, IgG1-fusion, SEQ ID NO:377; agonist peptide YSEGTFTSDYSKLLEEEAVRLFIEYLLAGG (YSEGTFTSDYSKLLEEEAVRLFIEYLLAGGGGGGSGGGGSGGGGSGGGGSATHTCPPC) | 0.027 nM | 0.045 nM | 0.0099 nM | 0.73 nM | 0.091 nM | 18 nM | 5.4 nM |
| IP335 (YSEGTFISDYSIAMDKIHQQDFVNWLLAQKGGGGGSGGGGSGGGGSGGGGSA) | > 2740 nM | 0.0067 nM | 0.0058 nM | > 2740 nM | > 5480 nM | 280 nM | 0.02 nM |
| IP308 (YSEGTFISDYSIALAAAAAKDFVNWLLAGGGGGGGSGGGGSGGGGSGGGGSATHTCPPC) | 700 nM | 0.09 nM | 0.025 nM | > 1520 nM | 1300 nM | ≥ 1500 nM | 0.17 nM |
| IP359: Fc fusion, IgG1-TM, SEQ ID NO:366; agonist peptide YSEGTFTSDYSKLLEEEAVRLFIEHLLAGG (YSEGTFTSDYSKLLEEEAVRLFIEHLLAGGGGGGSGGGGSGGGGSGGGGSATHTCPPC) | 0.04 nM | 0.039 nM | 0.011 nM | 0.2 nM | 0.061 nM | 43 nM | 8.3 nM |
| IP318: Fc fusion, IgG1-TM(ΔK), SEQ ID NO:432; agonist peptide YSEGTFISDYSIAMDEEAVRDFVEWLKAGG (YSEGTFISDYSIAMDEEAVRDFVEWLKAGGGGGGGSGGGGSGGGGSGGGGSATHTCPPC) | > 4470 nM | 14 nM | 0.05 nM | > 4470 nM | ≥ 4500 nM | ≥ 4500 nM | 35 nM |
| IP343 (YSEGTFTSDYAAAAERQAIDAFAAWLAAAAGGGGGSGGGGSGGGGSGGGGSA) | 360 nM | 110 nM | 72 nM | > 2070 nM | 960 nM | > 2070 nM | 880 nM |
| IP386 (YSEGTFISDYSIAMDKIHQQDFVNWLLAQKGGGGGSGGGGSGGGGSGGGGSACPPC) | > 16600 nM | 0.0085 nM | 0.0034 nM | > 16600 nM | > 9130 nM | 540 nM | 0.03 nM |
